Numbered stars: 1 amine (or outer) side, 2 acyl side, 3 side chain; on linkers, the order of the positions; unused ones are H or OH. Bridge positions count the residues as written; N and C are the ends. Side chains are listed from the residue outwards. Ends that are not written are not given here. * marks the point of attachment. C20 diacid = O=C(O)CCCCCCCCCCCCCCCCCCC(=O)*; C18 diacid = O=C(O)CCCCCCCCCCCCCCCCC(=O)*; C16 diacid = O=C(O)CCCCCCCCCCCCCCC(=O)*; γGlu = O=C(O)[C@H](CCC(=O)[*:2])N[*:1]; C14 diacid = O=C(O)CCCCCCCCCCCCC(=O)*
T1: human calcitonin receptor (human, UniProt P30988 25-474)
T1 construct: whole, on cells; Membranes of BHK cells stably transfected with the human calcitonin receptor (Assay VII); also called hCTR; hCT
T1 sequence (looked up): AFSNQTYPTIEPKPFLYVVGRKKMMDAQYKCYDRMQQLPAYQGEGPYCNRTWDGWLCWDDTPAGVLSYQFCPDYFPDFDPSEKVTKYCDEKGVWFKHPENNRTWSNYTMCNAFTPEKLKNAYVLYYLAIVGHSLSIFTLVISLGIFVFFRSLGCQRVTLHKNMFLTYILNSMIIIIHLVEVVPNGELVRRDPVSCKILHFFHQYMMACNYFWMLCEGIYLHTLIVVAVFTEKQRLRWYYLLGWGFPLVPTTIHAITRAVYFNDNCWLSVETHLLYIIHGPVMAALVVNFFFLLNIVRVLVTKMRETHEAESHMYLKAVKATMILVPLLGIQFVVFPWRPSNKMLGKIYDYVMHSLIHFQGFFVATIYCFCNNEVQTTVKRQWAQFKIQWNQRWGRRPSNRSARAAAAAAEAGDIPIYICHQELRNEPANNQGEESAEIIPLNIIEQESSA

B1: N^ε1-[(4S)-4-carboxy-4-[[(4S)-4-carboxy-4-(19-carboxynonadecanoylamino)butanoyl]amino]butanoyl]-[Glu14,Arg17,Pro21,Pro27,Pro34,Glu35]-h-amylin (peptide)
peptide: K([γGlu-γGlu-C20 diacid])CNTATCATQRLAEFLRHSSPNFGAIPSSTNVGPETY-NH2
modifications: disulfide 2-7; N-terminus assumed
SMILES: CC[C@H](C)[C@H](NC(=O)[C@H](C)NC(=O)CNC(=O)[C@H](Cc1ccccc1)NC(=O)[C@H](CC(N)=O)NC(=O)[C@@H]1CCCN1C(=O)[C@H](CO)NC(=O)[C@H](CO)NC(=O)[C@H](Cc1c[nH]cn1)NC(=O)[C@H](CCCNC(=N)N)NC(=O)[C@H](CC(C)C)NC(=O)[C@H](Cc1ccccc1)NC(=O)[C@H](CCC(=O)O)NC(=O)[C@H](C)NC(=O)[C@H](CC(C)C)NC(=O)[C@H](CCCNC(=N)N)NC(=O)[C@H](CCC(N)=O)NC(=O)[C@@H](NC(=O)[C@H](C)NC(=O)[C@@H]1CSSC[C@H](NC(=O)[C@@H](N)CCCCNC(=O)CC[C@H](NC(=O)CC[C@H](NC(=O)CCCCCCCCCCCCCCCCCCC(=O)O)C(=O)O)C(=O)O)C(=O)N[C@@H](CC(N)=O)C(=O)N[C@@H]([C@@H](C)O)C(=O)N[C@@H](C)C(=O)N[C@@H]([C@@H](C)O)C(=O)N1)[C@@H](C)O)C(=O)N1CCC[C@H]1C(=O)N[C@@H](CO)C(=O)N[C@@H](CO)C(=O)N[C@H](C(=O)N[C@@H](CC(N)=O)C(=O)N[C@H](C(=O)NCC(=O)N1CCC[C@H]1C(=O)N[C@@H](CCC(=O)O)C(=O)N[C@H](C(=O)N[C@@H](Cc1ccc(O)cc1)C(N)=O)[C@@H](C)O)C(C)C)[C@@H](C)O
B2: N^ε1-[(4S)-4-carboxy-4-(15-carboxypentadecanoylamino)butanoyl]-[Arg17,Pro21,Pro27,His34]-h-amylin (peptide)
peptide: K([γGlu-C16 diacid])CNTATCATQRLANFLRHSSPNFGAIPSSTNVGHNTY-NH2
modifications: disulfide 2-7; N-terminus assumed
SMILES: CC[C@H](C)[C@H](NC(=O)[C@H](C)NC(=O)CNC(=O)[C@H](Cc1ccccc1)NC(=O)[C@H](CC(N)=O)NC(=O)[C@@H]1CCCN1C(=O)[C@H](CO)NC(=O)[C@H](CO)NC(=O)[C@H](Cc1c[nH]cn1)NC(=O)[C@H](CCCNC(=N)N)NC(=O)[C@H](CC(C)C)NC(=O)[C@H](Cc1ccccc1)NC(=O)[C@H](CC(N)=O)NC(=O)[C@H](C)NC(=O)[C@H](CC(C)C)NC(=O)[C@H](CCCNC(=N)N)NC(=O)[C@H](CCC(N)=O)NC(=O)[C@@H](NC(=O)[C@H](C)NC(=O)[C@@H]1CSSC[C@H](NC(=O)[C@@H](N)CCCCNC(=O)CC[C@H](NC(=O)CCCCCCCCCCCCCCC(=O)O)C(=O)O)C(=O)N[C@@H](CC(N)=O)C(=O)N[C@@H]([C@@H](C)O)C(=O)N[C@@H](C)C(=O)N[C@@H]([C@@H](C)O)C(=O)N1)[C@@H](C)O)C(=O)N1CCC[C@H]1C(=O)N[C@@H](CO)C(=O)N[C@@H](CO)C(=O)N[C@H](C(=O)N[C@@H](CC(N)=O)C(=O)N[C@H](C(=O)NCC(=O)N[C@@H](Cc1c[nH]cn1)C(=O)N[C@@H](CC(N)=O)C(=O)N[C@H](C(=O)N[C@@H](Cc1ccc(O)cc1)C(N)=O)[C@@H](C)O)C(C)C)[C@@H](C)O
B3: N^ε1-[(4S)-4-carboxy-4-(13-carboxytridecanoylamino)butanoyl]-[Arg17,Pro21,Pro27,His34]-h-amylin (peptide)
peptide: K([γGlu-C14 diacid])CNTATCATQRLANFLRHSSPNFGAIPSSTNVGHNTY-NH2
modifications: disulfide 2-7; N-terminus assumed
SMILES: CC[C@H](C)[C@H](NC(=O)[C@H](C)NC(=O)CNC(=O)[C@H](Cc1ccccc1)NC(=O)[C@H](CC(N)=O)NC(=O)[C@@H]1CCCN1C(=O)[C@H](CO)NC(=O)[C@H](CO)NC(=O)[C@H](Cc1c[nH]cn1)NC(=O)[C@H](CCCNC(=N)N)NC(=O)[C@H](CC(C)C)NC(=O)[C@H](Cc1ccccc1)NC(=O)[C@H](CC(N)=O)NC(=O)[C@H](C)NC(=O)[C@H](CC(C)C)NC(=O)[C@H](CCCNC(=N)N)NC(=O)[C@H](CCC(N)=O)NC(=O)[C@@H](NC(=O)[C@H](C)NC(=O)[C@@H]1CSSC[C@H](NC(=O)[C@@H](N)CCCCNC(=O)CC[C@H](NC(=O)CCCCCCCCCCCCC(=O)O)C(=O)O)C(=O)N[C@@H](CC(N)=O)C(=O)N[C@@H]([C@@H](C)O)C(=O)N[C@@H](C)C(=O)N[C@@H]([C@@H](C)O)C(=O)N1)[C@@H](C)O)C(=O)N1CCC[C@H]1C(=O)N[C@@H](CO)C(=O)N[C@@H](CO)C(=O)N[C@H](C(=O)N[C@@H](CC(N)=O)C(=O)N[C@H](C(=O)NCC(=O)N[C@@H](Cc1c[nH]cn1)C(=O)N[C@@H](CC(N)=O)C(=O)N[C@H](C(=O)N[C@@H](Cc1ccc(O)cc1)C(N)=O)[C@@H](C)O)C(C)C)[C@@H](C)O
B4: N^ε1-[(4S)-4-carboxy-4-(17-carboxyheptadecanoylamino)butanoyl]-[Arg17,Pro21,Pro27,His34]-h-amylin (peptide)
peptide: K([γGlu-C18 diacid])CNTATCATQRLANFLRHSSPNFGAIPSSTNVGHNTY-NH2
modifications: disulfide 2-7; N-terminus assumed
SMILES: CC[C@H](C)[C@H](NC(=O)[C@H](C)NC(=O)CNC(=O)[C@H](Cc1ccccc1)NC(=O)[C@H](CC(N)=O)NC(=O)[C@@H]1CCCN1C(=O)[C@H](CO)NC(=O)[C@H](CO)NC(=O)[C@H](Cc1c[nH]cn1)NC(=O)[C@H](CCCNC(=N)N)NC(=O)[C@H](CC(C)C)NC(=O)[C@H](Cc1ccccc1)NC(=O)[C@H](CC(N)=O)NC(=O)[C@H](C)NC(=O)[C@H](CC(C)C)NC(=O)[C@H](CCCNC(=N)N)NC(=O)[C@H](CCC(N)=O)NC(=O)[C@@H](NC(=O)[C@H](C)NC(=O)[C@@H]1CSSC[C@H](NC(=O)[C@@H](N)CCCCNC(=O)CC[C@H](NC(=O)CCCCCCCCCCCCCCCCC(=O)O)C(=O)O)C(=O)N[C@@H](CC(N)=O)C(=O)N[C@@H]([C@@H](C)O)C(=O)N[C@@H](C)C(=O)N[C@@H]([C@@H](C)O)C(=O)N1)[C@@H](C)O)C(=O)N1CCC[C@H]1C(=O)N[C@@H](CO)C(=O)N[C@@H](CO)C(=O)N[C@H](C(=O)N[C@@H](CC(N)=O)C(=O)N[C@H](C(=O)NCC(=O)N[C@@H](Cc1c[nH]cn1)C(=O)N[C@@H](CC(N)=O)C(=O)N[C@H](C(=O)N[C@@H](Cc1ccc(O)cc1)C(N)=O)[C@@H](C)O)C(C)C)[C@@H](C)O

Experiments:
[1] = molecular target: T1, human calcitonin receptor; assay: ratio of IC50 at hCTR over IC50 at hAmylin-R (SPA competition assays)
Protocol: The resulting pellet was resuspended, homogenized and centrifuged (20.000 rpm, 15 min) in a buffer containing 20 mM Na-HEPES and 0.1 mM EDTA (pH 7.4, buffer 2). The resulting pellet was resuspended in buffer 2 and protein concentration was measured (BCA protein Assay, Pierce). The homogenate was kept cold during the whole procedure. The membranes were kept at −80° C. until use. The assay was performed in a 384 well Optiplate (PerkinElmer) in a total volume of 40 ul. Membranes were mixed with SPA beads. Final concentration of membranes 35 ng/μL final and SPA beads was 0.05 mg/well. Test-compounds were dissolved in DMSO and further diluted in assay buffer (50 mM Hepes, pH 7.4, 1 mM CaCl2, 5 mM MgCl₂, 0.1% OA and 0.02% Tween20). […] The final mixture was incubated with shaking at 400 rpm for 120 min at 25° C. prior to centrifugation (1500 rpm, 10 min). Samples were analyzed on TopCounter™ (Packard). The IC₅₀ was calculated using (one site binding competition analysis) GraphPad Prism5 as a measure of receptor affinity.
Membranes were prepared in the following way; the cells were rinsed with PBS and incubated with Versene for approximately 5 min before harvesting. The cells were flushed with PBS and the cell-suspension was centrifuged for 5 min at 1000 rpm. Cells were homogenized (Ultrathurrax) in a buffer containing 20 mM Na-HEPES and 10 mM EDTA (pH 7.4) and centrifuged at 20.000 rpm for 15 min. The resulting pellet was resuspended, homogenized and centrifuged (20.000 rpm, 15 min) in a buffer containing 20 mM Na-HEPES and 0.1 mM EDTA (pH 7.4, buffer 2). The resulting pellet was resuspended in buffer 2 and protein concentration was measured (BCA protein Assay, Pierce). The homogenate was kept cold during the whole procedure. The membranes were kept at −80° C. until use. Assay was performed in a 384 well Optiplate (PerkinElmer) in a total volume of 40 ul. Membranes were mixed with SPA beads.

[2] = molecular target: T1, human calcitonin receptor; assay: SPA competition against 125I-calcitonin, membranes of BHK cells with human calcitonin receptor (Assay VII)
Protocol: Membranes were prepared in the following way; the cells were rinsed with PBS and incubated with Versene for approximately 5 min before harvesting. The cells were flushed with PBS and the cell-suspension was centrifuged for 5 min at 1000 rpm. Cells were homogenized (Ultrathurrax) in a buffer containing 20 mM Na-HEPES and 10 mM EDTA (pH 7.4) and centrifuged at 20.000 rpm for 15 min. The resulting pellet was resuspended, homogenized and centrifuged (20.000 rpm, 15 min) in a buffer containing 20 mM Na-HEPES and 0.1 mM EDTA (pH 7.4, buffer 2). The resulting pellet was resuspended in buffer 2 and protein concentration was measured (BCA protein Assay, Pierce). The homogenate was kept cold during the whole procedure. The membranes were kept at −80° C. until use. Assay was performed in a 384 well Optiplate (PerkinElmer) in a total volume of 40 ul. Membranes were mixed with SPA beads. Final concentration of membranes 35 ng/μL final and Final concentration of SPA beads was 0.05 mg/well. Test-compounds were dissolved in DMSO and further diluted in assay buffer (50 mM Hepes, pH 7.4, 1 mM CaCl2, 5 mM MgCl₂, 0.1% OA and 0.02% Tween20). […] The final mixture was incubated for 120 min with shaking at 400 rpm at 25° C. prior to centrifugation (1500 rpm, 10 min). Samples were analyzed on TopCounter™ (Packard). The […] was calculated using (one site binding competition analysis) GraphPad Prism5 as a measure of receptor affinity.

Binder | Ratio hCT/hAmylin binding [1] | IC50 [2]
B1 | 17.6 | 2.13 nM
B2 | 18.5 | 10.8 nM
B3 | 23.5 | 24.3 nM
B4 | 59.4 | 22.7 nM

From patent US20140087995A1 (published 2014)
